Measured values as given in patent publication US20160024487.

Legend:
human α-thrombin (FIIa) = human α-thrombin (FIIa) (UniProt P00734)
[1] = tested on: Lys(Dnp)-DFLAEGGGPRIVGG-Lys(Abz)
[2] = tested on: Lys(Dnp)-ATNATHGPRIVGG-Lys(Abz)
[3] = tested on: Lys(Dnp)-ATNATYKPRIVGG-Lys(Abz)
[4] = tested on: Lys(Dnp)-ATNATDKPRIVGG-Lys(Abz)
[5] = tested on: Lys(Dnp)-ATNATAMPRIVGG-Lys(Abz)
[6] = tested on: Lys(Dnp)-DNEEGFFSARIVGG-Lys(Abz)
[7] = tested on: Lys(Dnp)-ATNATKMPRIVGG-Lys(Abz)
[8] = tested on: Lys(Dnp)-ATNATDIPRIVGG-Lys(Abz)
[9] = tested on: Lys(Dnp)-ATNATINPRIVGG-Lys(Abz)
[10] = tested on: Lys(Dnp)-ATNATHNPRIVGG-Lys(Abz)
[11] = tested on: Lys(Dnp)-ATNATSSPRIVGG-Lys(Abz)
[12] = tested on: Lys(Dnp)-ATNATDFPRIVGG-Lys(Abz)
[13] = tested on: Lys(Dnp)-ATNATEAPRIVGG-Lys(Abz)
[14] = tested on: Lys(Dnp)-ATNATWPPRIVGG-Lys(Abz)
[15] = tested on: Lys(Dnp)-ATNATEPPRIVGG-Lys(Abz)
[16] = tested on: Lys(Dnp)-ATNATQPPRIVGG-Lys(Abz)
[17] = tested on: Lys(Dnp)-ATNATNPPRIVGG-Lys(Abz)
[18] = tested on: Lys(Dnp)-ATNATKTPRIVGG-Lys(Abz)
[19] = tested on: Lys(Dnp)-ATNATKHPRIVGG-Lys(Abz)
[20] = tested on: Lys(Dnp)-ATNATFQPRIVGG-Lys(Abz)
[21] = tested on: Lys(Dnp)-EDSDRAIEGRIVGG-Lys(Abz)
[22] = tested on: Lys(Dnp)-ATNATTNPRIVGG-Lys(Abz)
[23] = tested on: Lys(Dnp)-ATNATHHPRIVGG-Lys(Abz)
[24] = tested on: Lys(Dnp)-ATNATEVPRIVGG-Lys(Abz)
[25] = tested on: Lys(Dnp)-ATNATPAPRIVGG-Lys(Abz)
[26] = tested on: Lys(Dnp)-ATNATNGPRIVGG-Lys(Abz)
[27] = tested on: Lys(Dnp)-ATNATQQPRIVGG-Lys(Abz)
[28] = tested on: PAR 1 control substrate sequence [Lys(Dnp)-ATNATLDPRIVGG-Lys(Abz)]
[29] = tested on: Lys(Dnp)-ATNATDEPRIVGG-Lys(Abz)
[30] = tested on: Lys(Dnp)-ATNATKYPRIVGG-Lys(Abz)
[31] = tested on: Lys(Dnp)-DQVTVAMTPRIVGG-Lys(Abz)
[32] = tested on: Lys(Dnp)-ATNATFWPRIVGG-Lys(Abz)
[33] = tested on: Lys(Dnp)-ATNATVSPRIVGG-Lys(Abz)
[34] = tested on: Lys(Dnp)-ATNATQDPRIVGG-Lys(Abz)
[35] = tested on: Lys(Dnp)-ATNATIDPRIVGG-Lys(Abz)
[36] = tested on: Lys(Dnp)-ATNATPFPRIVGG-Lys(Abz)
[37] = tested on: Lys(Dnp)-ATNATDHPRIVGG-Lys(Abz)
[38] = tested on: Lys(Dnp)-SEYQTFFNPRIVGG-Lys(Abz)
[39] = tested on: Lys(Dnp)-ATNATRIPRIVGG-Lys(Abz)
[40] = tested on: Lys(Dnp)-ATNATTEPRIVGG-Lys(Abz)
[41] = tested on: Lys(Dnp)-ATNATFIPRIVGG-Lys(Abz)
[42] = tested on: Lys(Dnp)-ATNATANPRIVGG-Lys(Abz)
[43] = tested on: Lys(Dnp)-ATNATARPRIVGG-Lys(Abz)
[44] = tested on: Lys(Dnp)-ATNATGNPRIVGG-Lys(Abz)
[45] = tested on: Lys(Dnp)-ATNATVLPRIVGG-Lys(Abz)
[46] = tested on: Lys(Dnp)-ATNATPDPRIVGG-Lys(Abz)
[47] = tested on: Lys(Dnp)-ATNATNDPRIVGG-Lys(Abz)
[48] = tested on: Lys(Dnp)-ATNATQNPRIVGG-Lys(Abz)
[49] = tested on: Lys(Dnp)-NESTTKIKPRIVGG-Lys(Abz)
[50] = tested on: Lys(Dnp)-ATNATTDPRIVGG-Lys(Abz)
[51] = tested on: Lys(Dnp)-ATNATAVPRIVGG-Lys(Abz)
[52] = tested on: Lys(Dnp)-ATNATVFPRIVGG-Lys(Abz)
[53] = tested on: Lys(Dnp)-ATNATLVPRIVGG-Lys(Abz)
[54] = tested on: Lys(Dnp)-ATNATHFPRIVGG-Lys(Abz)
[55] = tested on: 73k-HEP-[N]-FX ins[194]>[DFLAEGGGVR]-HPC4
[56] = tested on: At least 20 sequences selected from the QF-substrate library
[57] = tested on: 40k-HEP-[N]-FX ins[194]>[DFLAEGGGVR]-HPC4
[58] = tested on: FpA_P quenched fluorescence substrate Lys(Dnp)-DFLAEGGGPRIVGG-Lys(Abz)
[59] = tested on: FX ins[194]>[DFLAEGGGVR]-HPC4
[60] = tested on: FX ins[194]>[DFLAEGGGPR]-HPC4
[61] = tested on: 21k-HEP-[N]-FX ins[194]>[DFLAEGGGVR]-HPC4
Chain of 21k-HEP-[N]-FX ins[194]>[DFLAEGGGVR]-HPC4 (chain, as listed by the source): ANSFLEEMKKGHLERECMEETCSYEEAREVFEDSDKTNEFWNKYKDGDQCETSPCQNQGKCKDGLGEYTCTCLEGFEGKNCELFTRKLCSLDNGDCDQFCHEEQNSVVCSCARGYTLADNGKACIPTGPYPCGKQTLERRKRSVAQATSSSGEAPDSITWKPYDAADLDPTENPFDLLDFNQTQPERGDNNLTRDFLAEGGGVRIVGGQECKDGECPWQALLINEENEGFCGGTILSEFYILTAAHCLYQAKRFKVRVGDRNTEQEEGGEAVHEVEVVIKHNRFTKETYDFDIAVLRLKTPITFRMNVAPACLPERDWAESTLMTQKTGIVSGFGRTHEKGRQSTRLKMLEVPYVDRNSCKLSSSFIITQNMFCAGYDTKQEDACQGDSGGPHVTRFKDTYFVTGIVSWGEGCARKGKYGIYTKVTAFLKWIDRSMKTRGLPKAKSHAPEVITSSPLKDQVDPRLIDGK

Chain of FX [191-194]>[LTPR]-HPC4 (chain, as listed by the source): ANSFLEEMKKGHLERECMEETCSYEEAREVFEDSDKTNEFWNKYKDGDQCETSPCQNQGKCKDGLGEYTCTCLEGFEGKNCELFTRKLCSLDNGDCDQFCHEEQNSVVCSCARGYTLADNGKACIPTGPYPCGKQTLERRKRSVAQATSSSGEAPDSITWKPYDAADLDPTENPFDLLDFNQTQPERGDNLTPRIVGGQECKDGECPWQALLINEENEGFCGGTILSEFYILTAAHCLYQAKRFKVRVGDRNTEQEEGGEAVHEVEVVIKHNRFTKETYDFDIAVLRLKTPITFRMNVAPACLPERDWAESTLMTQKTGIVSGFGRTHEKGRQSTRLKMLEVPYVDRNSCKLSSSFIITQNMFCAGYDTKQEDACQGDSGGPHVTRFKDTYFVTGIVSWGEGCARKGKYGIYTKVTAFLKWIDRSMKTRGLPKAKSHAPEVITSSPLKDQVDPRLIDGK
Chain of FX ins[194]>[DFLAEGGGPR]-HPC4 (chain, as listed by the source): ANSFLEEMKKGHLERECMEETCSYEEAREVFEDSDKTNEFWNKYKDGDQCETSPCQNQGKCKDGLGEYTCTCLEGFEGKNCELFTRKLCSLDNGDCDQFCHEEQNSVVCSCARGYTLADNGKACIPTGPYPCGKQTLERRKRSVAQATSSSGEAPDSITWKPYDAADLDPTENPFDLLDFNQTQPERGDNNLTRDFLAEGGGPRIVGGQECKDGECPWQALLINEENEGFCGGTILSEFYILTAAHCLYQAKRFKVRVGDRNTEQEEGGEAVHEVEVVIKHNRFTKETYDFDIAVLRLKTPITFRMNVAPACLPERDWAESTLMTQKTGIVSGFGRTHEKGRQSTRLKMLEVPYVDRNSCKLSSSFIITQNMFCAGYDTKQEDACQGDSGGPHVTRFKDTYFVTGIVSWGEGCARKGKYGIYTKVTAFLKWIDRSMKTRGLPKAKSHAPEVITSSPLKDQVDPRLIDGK

Question: How did the kcat/KM (human α-thrombin (FIIa)) turn out when FX-HPC4 was run?
Answer: No Activity

Question: Which kcat/KM [1] does the source give for Human plasma purified α-thrombin here?
Answer: 40000 M⁻¹ s⁻¹

Question: And the kcat/KM [2]?
Answer: 1000 M⁻¹ s⁻¹

Question: What about the FIIa kcat/KM [3] of the same substance?
Answer: 5000 M⁻¹ s⁻¹

Question: And the kcat/KM [3]?
Answer: 5000 M⁻¹ s⁻¹

Question: And the kcat/KM [4]?
Answer: 10 M⁻¹ s⁻¹

Question: What about the kcat/KM [5] of the same substance?
Answer: 9000 M⁻¹ s⁻¹

Question: And the kcat/KM [6]?
Answer: 300 M⁻¹ s⁻¹

Question: And the kcat/KM [7]?
Answer: 800 M⁻¹ s⁻¹

Question: What about the kcat/KM [8] of the same substance?
Answer: 30 M⁻¹ s⁻¹

Question: What about the kcat/KM [9] of the same substance?
Answer: 10000 M⁻¹ s⁻¹

Question: What about the kcat/KM [10] of the same substance?
Answer: 800 M⁻¹ s⁻¹

Question: What about the kcat/KM [11] of the same substance?
Answer: 1000 M⁻¹ s⁻¹

Question: And the kcat/KM [12]?
Answer: 600 M⁻¹ s⁻¹

Question: What about the kcat/KM [13] of the same substance?
Answer: 400 M⁻¹ s⁻¹

Question: What about the FIIa kcat/KM [14] of the same substance?
Answer: 9700 M⁻¹ s⁻¹

Question: What about the kcat/KM [14] of the same substance?
Answer: 9700 M⁻¹ s⁻¹

Question: And the kcat/KM [15]?
Answer: 2 M⁻¹ s⁻¹

Question: And the kcat/KM [16]?
Answer: 0 M⁻¹ s⁻¹

Question: And the kcat/KM [17]?
Answer: 9 M⁻¹ s⁻¹

Question: What about the kcat/KM [18] of the same substance?
Answer: 610 M⁻¹ s⁻¹

Question: And the kcat/KM [19]?
Answer: 900 M⁻¹ s⁻¹

Question: And the FIIa kcat/KM [20]?
Answer: 30000 M⁻¹ s⁻¹

Question: What about the kcat/KM [20] of the same substance?
Answer: 30000 M⁻¹ s⁻¹

Question: What about the kcat/KM [21] of the same substance?
Answer: 0 M⁻¹ s⁻¹

Question: And the kcat/KM [22]?
Answer: 600 M⁻¹ s⁻¹

Question: And the kcat/KM [23]?
Answer: 2000 M⁻¹ s⁻¹

Question: What about the kcat/KM [24] of the same substance?
Answer: 200 M⁻¹ s⁻¹

Question: And the kcat/KM [25]?
Answer: 7000 M⁻¹ s⁻¹

Question: And the kcat/KM [26]?
Answer: 500 M⁻¹ s⁻¹

Question: What about the kcat/KM [27] of the same substance?
Answer: 10000 M⁻¹ s⁻¹

Question: What about the kcat/KM [28] of the same substance?
Answer: 3000 M⁻¹ s⁻¹

Question: What about the kcat/KM [29] of the same substance?
Answer: 0.0004 M⁻¹ s⁻¹

Question: What about the kcat/KM [30] of the same substance?
Answer: 700 M⁻¹ s⁻¹

Question: And the kcat/KM [31]?
Answer: 30000 M⁻¹ s⁻¹

Question: And the FIIa kcat/KM [32]?
Answer: 20000 M⁻¹ s⁻¹

Question: And the kcat/KM [32]?
Answer: 20000 M⁻¹ s⁻¹

Question: And the FIIa kcat/KM [33]?
Answer: 7600 M⁻¹ s⁻¹

Question: And the kcat/KM [33]?
Answer: 7600 M⁻¹ s⁻¹

Question: And the kcat/KM [34]?
Answer: 500 M⁻¹ s⁻¹

Question: And the kcat/KM [35]?
Answer: 2000 M⁻¹ s⁻¹

Question: What about the FIIa kcat/KM [36] of the same substance?
Answer: 9000 M⁻¹ s⁻¹

Question: And the kcat/KM [36]?
Answer: 9000 M⁻¹ s⁻¹

Question: And the kcat/KM [37]?
Answer: 1000 M⁻¹ s⁻¹

Question: What about the kcat/KM [38] of the same substance?
Answer: 20000 M⁻¹ s⁻¹

Question: And the kcat/KM [39]?
Answer: 1000 M⁻¹ s⁻¹

Question: And the kcat/KM [40]?
Answer: 700 M⁻¹ s⁻¹

Question: And the kcat/KM [41]?
Answer: 7000 M⁻¹ s⁻¹

Question: And the kcat/KM [42]?
Answer: 4000 M⁻¹ s⁻¹

Question: What about the FIIa kcat/KM [43] of the same substance?
Answer: 20000 M⁻¹ s⁻¹

Question: And the kcat/KM [43]?
Answer: 20000 M⁻¹ s⁻¹

Question: What about the kcat/KM [44] of the same substance?
Answer: 700 M⁻¹ s⁻¹

Question: And the kcat/KM [45]?
Answer: 5000 M⁻¹ s⁻¹

Question: And the kcat/KM [46]?
Answer: 2000 M⁻¹ s⁻¹

Question: And the kcat/KM [47]?
Answer: 3 M⁻¹ s⁻¹

Question: What about the kcat/KM [48] of the same substance?
Answer: 2000 M⁻¹ s⁻¹

Question: And the kcat/KM [49]?
Answer: 20000 M⁻¹ s⁻¹

Question: What about the kcat/KM [50] of the same substance?
Answer: 1000 M⁻¹ s⁻¹

Question: What about the FIIa kcat/KM [51] of the same substance?
Answer: 9700 M⁻¹ s⁻¹

Question: And the kcat/KM [51]?
Answer: 9700 M⁻¹ s⁻¹

Question: And the FIIa kcat/KM [52]?
Answer: 8400 M⁻¹ s⁻¹

Question: What about the kcat/KM [52] of the same substance?
Answer: 8400 M⁻¹ s⁻¹

Question: What about the FIIa kcat/KM [53] of the same substance?
Answer: 30000 M⁻¹ s⁻¹

Question: What about the kcat/KM [53] of the same substance?
Answer: 30000 M⁻¹ s⁻¹

Question: What about the kcat/KM [54] of the same substance?
Answer: 1000 M⁻¹ s⁻¹

Question: Which “kinetic parameters (kcat, KM and kcat/KM) of activation, compared with the unconjugated molecule” value [55] does the source give for human α-thrombin (FIIa) here?
Answer: there is no significant effect of hepylation on the observed kinetic parameters for the tested molecule

Question: What about the “cleavage rate (kcat/KM) by thrombin, fold improvement over the parent PAR-1 sequence” value [56] of the same substance?
Answer: >20-fold improved cleavage rates (kcat/KM) over the parent PAR-1 sequence

Question: And the “kinetic parameters (kcat, KM and kcat/KM) of activation, compared with the unconjugated molecule” value [57]?
Answer: there is no significant effect of hepylation on the observed kinetic parameters for the tested molecule

Question: What about the “cleavage rate (kcat/KM) by thrombin” value [58] of the same substance?
Answer: The most improved natural substrate was shown to be the FpA_P sequence, which has a proline residue at X2 instead of the naturally occurring valine

Question: And the “kcat of activation by α-thrombin, relative to FX [191-194]>[MTPR]-HPC4” value [59]?
Answer: each of which have 5-10 fold higher kcat values than FX [191-194]>[MTPR]-HPC4

Question: And the “kcat of activation by α-thrombin, relative to FX [191-194]>[MTPR]-HPC4” value (FX [191-194]>[LTPR]-HPC4)?
Answer: each of which have 5-10 fold higher kcat values than FX [191-194]>[MTPR]-HPC4

Question: What about the “activation rate (kcat/KM) by α-thrombin, relative to FX ins[194]>[DFLAEGGGVR]-HPC4” value [60] of the same substance?
Answer: This activation rate is 10× the observed activation rate for a variant having the unmodified FpA sequence (FX ins[194]>[DFLAEGGGVR]-HPC4)

Question: And the “kinetic parameters (kcat, KM and kcat/KM) of activation, compared with the unconjugated molecule” value [61]?
Answer: there is no significant effect of hepylation on the observed kinetic parameters for the tested molecule
